Assay results published in patent publication US12104178B2, “DHFR tunable protein regulation” (Obsidian Therapeutics, Inc., priority 2017, dated 2024).

Columns and labels:
HEK-293T cells = test: IL15 western blot of DD IL15-IL15Ra, transient transfection; assay type: cell-based, human; settings: 10 μM Trimethoprim or 1 μM Shield-1, 24 h
Method: To test ligand dependent IL15-IL15Ra production, 1 million HEK-293T cells were plated in a 6-well plate in growth media containing DMEM and 10 FBS and incubated overnight at 37° C., 5% CO2. […] Cells were harvested and IL15 levels are analyzed via western blotting using human IL15 antibody (Abcam, Cambridge, UK).

HCT-116 = test: Surface expression of IL15-IL15Ra fusion constructs, PE-IL15Ra antibody FACS; assay type: cell-based, human; settings: for Median Fluorescence Intensity, surface IL15-IL15Ra: 24 h
Method: Membrane bound-IL15-IL15Ra constructs (OT-IL15-008 to OT IL-15-011) were transduced into human colorectal carcinoma cell line, HCT-116 and stable integrants were selected with 2 μg of puromycin.
Surface expression of IL15-IL15Ra fusion constructs was examined by staining with PE-conjugated IL15Ra antibody (Cat no. 330207, Biolegend, San Diego, CA). The median fluorescence intensity obtained with the different constructs in the presence or absence of the corresponding ligand is presented in Table 53. The stabilization ratio was calculated as the fold change in fluorescence intensity in ligand treated samples compared to treatment with DMSO (i.e. in the absence of ligand) with the same construct. The destabilization ratio was calculated as the fold change in fluorescence intensity in the DD regulated constructs compared to the constitutive construct (OT-IL15-008) in the absence of the ligand. Destabilization ratios less than 1 and stabilization ratios greater than 1 are desired in DDs.
Membrane bound-IL15-IL15Ra constructs (OT-IL15-008 to OT IL15-011) were transduced into human colorectal carcinoma cell line, HCT-116 and stable integrants were selected with 2 μg of puromycin.
Surface expression of IL15-IL15Ra fusion constructs was examined by staining with PE-conjugated IL15Ra antibody (Cat no. 330207, Biolegend, San Diego, CA). The median fluorescence intensity obtained with the different constructs in the presence or absence of the corresponding ligand is presented in Table 55.
The stabilization ratio was calculated as the fold change in GFP intensity in ligand treated samples compared to treatment with DMSO (i.e. in the absence of ligand) with the same construct. The destabilization ratio was calculated as the fold change in GFP intensity in the DD regulated constructs compared to the constitutive construct (OT-IL15-008) in the absence of the ligand. Destabilization ratios less than 1 and stabilization ratios greater than 1 are desired in DDs.

NK-92 cells = test: NK-92 activation markers with IL12 (Table 83); assay type: cell-based; settings: IL12 10 ng/ml, 18 h
Method: The dependency of the NK-92 cells on cytokines for activation was tested. […] The cells were cultured for 18 hours in the presence of IL12 (10 ng/ml) or varying concentrations of IL15 (100 ng/ml, 20 ng/ml, 4 ng/ml, 0.8 ng/ml, 0.16 ng/ml, 0.032 ng/ml, 0.0064 ng/ml and 0.00128 ng/ml). NK-92 cell activation in response to IL15 and IL12 treatment was evaluated by FACS analysis using a panel of markers whose increased expression is associated with NK activation. These include NKG2D, CD71, CD69; chemokine receptors such as CCR5, CXCR4, and CXCR3, Perforin, Granzyme B and Interferon gamma (IFNg). Prior to FACS analysis for IFNg, cells were cultured for 4 hours with Brefeldin A. NK cells respond to external stimuli such as cytokines in their environment through the phosphorylation of proteins JAK/STAT, ERK, and p38/MAPK pathways which are important for cell activation, signaling and differentiation pathways. The phosphorylation of AKT, STAT3 and STAT5 in response to cytokine addition was measured by FACS. Since phosphorylation events are transient NK-92 cells were treated with the cytokines for 15 or 60 minutes, prior to the analysis.

Human T cells = test: IL12 induced differentiation of human T cells, IFN gamma / CD3 flow cytometry; assay type: cell-based; settings: IL12 treated (untreated 0.21)
Method: IL12 promotes the differentiation of naïve T cells into Th1 cells which results in the secretion of IFN gamma from T cells. Human T cells were treated with IL12 or left untreated and analyzed by flow cytometry for the expression of IFN gamma and T cell marker CD3.

T cells = test: IL12/IL2 effect on T cell expansion and IFNgamma positive CD4+/CD8+ T cells; assay type: cell-based, human
Excerpt: The goal of the study was to determine the T cell stimulation regimen and dose of IL12 needed to maximize T cell persistence and T cell differentiation in vitro, to mimic an in vivo adoptive cell transfer therapy regimen. The study recapitulates the design of the adoptive cell therapy regimen wherein the T cells were initially exposed to the antigen in vitro which results in activation followed by a resting phase and finally in vivo transfer where the T cells encounter the antigen again. T cells were stimulated CD3/CD28 beads or soluble CD3/CD28 on day 0 and the CD3/CD28 stimulus was washed off at the end of 48 hours. Cells were treated with a dose of IL12 ranging from 0.01-1000 ng/mL. On day 9, the Th1 phenotype of the cells was evaluated by examining the frequency of IFNgamma positive CD4+ cells and CD8+ cells. On day 14, cells were divided into two groups—one group received a second CD3/CD28 stimulation and a second group that was not stimulated. On day 16, the Th1 phenotype was evaluated in both groups using FACS.
To test the requirement of IL2 and IL12 for T cells expansion and activation, T cells were stimulated with soluble CD3/CD28, CD3/CD28 Dynabeads or left unstimulated for two days. Each of these groups was further split into two sub groups. One sub group was treated with IL2 and 100 ng/ml of IL12 while the second sub group was treated with IL2 only for the duration of the stimulation. For the soluble CD3/CD28 stimulated cells, a third subgroup that was only treated with 100 ng/ml of IL12 was also included.
The effect of IL12 on T cell activation was measured by determining the frequency of IFNgamma positive CD4+ and CD8+ T cells. IFNg is produced by activated T cells. Three different stimulation protocols were used. In the first protocol, cells were stimulated with CD3/CD28 dynabeads for 2 days, following which the beads were washed off and the cells were treated with varying concentrations of IL12 for 7 days (from day 2 to day 9). At day 9, cells were restimulated with soluble CD3/CD28 and the frequency of IFNgamma positive cells was determined by FACS. […] In the second protocol, following 2 day CD3/CD28 dynabeads stimulation, T cells were maintained in culture for a longer duration of 14 days i.e. from day 2 to day 16. At day 16, cells were restimulated with soluble CD3/CD28. At day 16, the frequency of IFNgamma positive cells was measured. […] In the third protocol, T cells were initially stimulated for 2 days with CD3/CD28 dynabeads and IL2, followed by treatment with IL2 only for 9 days (i.e. from day 2 to day 11), followed by IL12 treatment for 2 to 5 days. In the last two days of the experiment, cells were also restimulated with soluble CD3/CD28. IFNgamma positive CD4 and CD8 cells were measured using FACS. The third protocol mimics the environment that is presented to T cells in adoptive cell therapy, both during in vitro transduction and T cells expansion as well as the in vivo.

NIH 3T3 cells = test: hDHFR mutant-GFP reporter stability with DMSO, MTX or TMP (FACS); assay type: cell-based; settings: for GFP intensity Fold Change vs DMSO: 48 h; for Destabilizing mutation co-efficient: GFP intensity vs hDHFR (WT); for Destabilizing mutation co-efficient / Median Fluorescence signal with DMSO: no ligand; for Median Fluorescence signal with DMSO: hDHFR-GFP, DMSO 48 h
Excerpt: Known destabilizing mutations in E. coli DHFR (ecDHFR) were mapped onto the structure of human DHFR (hDHFR) and corresponding mutations in wild type hDHFR protein were generated using site directed mutagenesis. hDHFR mutants were then fused to a linker, GGSGGG (SEQ ID NO: 2728) and a GFP reporter gene at the N terminus. […] The hDHFR N terminus mutant construct cloned into pLVX. IRES. The reporter constructs were transfected into NIH 3T3 cells. […] DMSO was used as control. Fluorescence signal was measured by FACS and median fluorescence signal intensity was calculated. The destabilizing mutation co-efficient was calculated as the fold change in GFP intensity in the hDHFR mutant constructs compared to the hDHFR (WT) in the absence of the ligand. Destabilizing mutation co-efficients less than 1 are desired in DDs.
Percentage of GFP positive cells as a measure of ligand dependent DD stabilization in each transfection was calculated using FACS Calibur™ (see Table 46).

hDHFR = test: Immunoblot of hDHFR WT and mutants after TMP, MTX or DMSO; assay type: cell-based, human; settings: MTX or DMSO 48 h
Excerpt: The results were consistent using both the AcGFP antibody as well as the hDHFR antibody.

HEK 293T cells = test: GFP-hDHFR C terminus fusions, MFI (FACS); assay type: cell-based, human; settings: 1 μM MTX or 50 μM TMP, 48 h
Method: DDs may be positioned upstream or downstream of the payload within an SRE. hDHFR mutants generated by structure guided mutagenesis as discussed in example 2 were fused at the C-terminus of GFP to test if the hDHFR mutants can destabilize proteins of interest when fused to the C-terminus of the protein of interest. A linker, GGSGGG (SEQ ID NO. 6413) was placed between GFP and hDHFR and cloned into pLVX.IRES. Puro.
Following the incubation, median fluorescence intensity (MFI) was measured using FACS.

Q: For “OT-IL15-006: IL15-IL15Ra fusion with ecDHFR (R12Y, E129K) DD”, which “IL15 stabilization by western blot (FIG. 24A)” value (HEK-293T cells) is on record?
A: modest ligand dependent stabilization of IL15

Q: What about the “Median Fluorescence Intensity, surface IL15-IL15Ra” value (HCT-116; 10 μM TMP) of the same molecule?
A: 2978

Q: What about the “Median Fluorescence Intensity, surface IL15-IL15Ra” value (HCT-116; DMSO) of the same molecule?
A: 764

Q: And the Stabilization ratio (HCT-116; TMP vs DMSO)?
A: 3.90

Q: What about the Destabilization ratio (HCT-116; vs constitutive OT-IL15-008, no ligand) of the same molecule?
A: 0.14

Q: Which results are given for “IL12: cytokine added to T cells or NK-92 cells”?
A: Fold change in MFI vs untreated, CCR5 (NK-92 cells): 1.60; Fold change in MFI vs untreated, Granzyme (NK-92 cells): 1.87; Fold change in MFI vs untreated, IFNg (NK-92 cells): 1.74; Fold change in MFI vs untreated, Perforin (NK-92 cells): 1.67; Fold change vs untreated, IFNg (supernatant) (NK-92 cells): 666.15; Percentage of IFN gamma positive T cells (Human T cells): 22.3%; Requirement for T cell expansion (FIG. 37A) (T cells; 14 days, CD3/CD28 stimulation): may be dispensable; IL12 dose causing Th1-skewing and IFN gamma production (T cells; T cells in vitro, day 16): 0.1 ng/mL; EC50, IFNgamma positive cells (T cells; first protocol (7 days IL12), CD8 cells): 0.05 ng/mL; EC50, IFNgamma positive cells (T cells; second protocol (14 days), CD4 cells): 0.012 ng/mL; EC50, IFNgamma positive cells (T cells; second protocol (14 days), CD8 cells): 0.065 ng/mL; EC50, IFNgamma positive cells (T cells; third protocol, IL12 final 5 days, CD4 cells): 0.024 ng/mL; EC50, IFNgamma positive cells (T cells; third protocol, IL12 final 5 days, CD8 cells): 0.04 ng/mL

B1: OT-hDHFRN-005: hDHFR A125F, Y122I-GFP (protein, UniProt P00374 1-187, looked up, variant A125F Y122I)
Dihydrofolate reductase: MVGSLNCIVAVSQNMGIGKNGDLPWPPLRNEFRYFQRMTTTSSVEGKQNLVIMGKKTWFSIPEKNRPLKGRINLVLSRELKEPPQGAHFLSRSLDDALKLTEQPELANKVDMVWIVGGSSVIKEFMNHPGHLKLFVTRIMQDFESDTFFPEIDLEKYKLLPEYPGVLSDVQEEKGIKYKFEVYEKND
modifications: GFP fusion
notes: hDHFR A125F, Y122I-GFP
Q: With B1 as the molecule, how does the “% GFP positive cells” value (NIH 3T3 cells; 1 μM MTX) read?
A: 89.6%

Q: What about the “GFP intensity Fold Change vs DMSO” value (NIH 3T3 cells; 1 μM MTX) of the same molecule?
A: 26.98

Q: What about the “% GFP positive cells” value (NIH 3T3 cells; 10 μM TMP) of the same molecule?
A: 54.7%

Q: And the “GFP intensity Fold Change vs DMSO” value (NIH 3T3 cells; 10 μM TMP)?
A: 6.24

Q: And the “% GFP positive cells” value (NIH 3T3 cells; DMSO)?
A: 0.64%

Q: And the Destabilizing mutation co-efficient (NIH 3T3 cells)?
A: 0.14

Q: And the “Median Fluorescence signal with DMSO” value (NIH 3T3 cells)?
A: 2.55

Q: What about the “Protein level stabilization (immunoblot, FIG. 19)” value (“Protein level stabilization” for short) (hDHFR) of the same molecule?
A: stabilized following treatment with both MTX and TMP

B2: OT-hDHFRN-007: hDHFR L94A, T147A-GFP (protein, UniProt P00374 1-187, looked up, variant L94A T147A)
Dihydrofolate reductase: MVGSLNCIVAVSQNMGIGKNGDLPWPPLRNEFRYFQRMTTTSSVEGKQNLVIMGKKTWFSIPEKNRPLKGRINLVLSRELKEPPQGAHFLSRSADDALKLTEQPELANKVDMVWIVGGSSVYKEAMNHPGHLKLFVTRIMQDFESDAFFPEIDLEKYKLLPEYPGVLSDVQEEKGIKYKFEVYEKND
modifications: GFP fusion
notes: hDHFR L94A, T147A-GFP
Q: For B2, which “% GFP positive cells” value (NIH 3T3 cells; 1 μM MTX) is on record?
A: 40.7%

Q: What about the “GFP intensity Fold Change vs DMSO” value (NIH 3T3 cells; 1 μM MTX) of the same molecule?
A: 4.46

Q: And the “% GFP positive cells” value (NIH 3T3 cells; 10 μM TMP)?
A: 0.52%

Q: And the “GFP intensity Fold Change vs DMSO” value (NIH 3T3 cells; 10 μM TMP)?
A: 1.00

Q: And the “% GFP positive cells” value (NIH 3T3 cells; DMSO)?
A: 0.26%

Q: What about the Destabilizing mutation co-efficient (NIH 3T3 cells) of the same molecule?
A: 0.15

Q: What about the “Median Fluorescence signal with DMSO” value (NIH 3T3 cells) of the same molecule?
A: 2.67

Q: What about the “Protein level stabilization” value (hDHFR) of the same molecule?
A: stabilization exclusively with MTX

B3: OT-hDHFRN-008: hDHFR G21T, Y122I-GFP (protein, UniProt P00374 1-187, looked up, variant G21T Y122I)
Dihydrofolate reductase: MVGSLNCIVAVSQNMGIGKNTDLPWPPLRNEFRYFQRMTTTSSVEGKQNLVIMGKKTWFSIPEKNRPLKGRINLVLSRELKEPPQGAHFLSRSLDDALKLTEQPELANKVDMVWIVGGSSVIKEAMNHPGHLKLFVTRIMQDFESDTFFPEIDLEKYKLLPEYPGVLSDVQEEKGIKYKFEVYEKND
modifications: GFP fusion
notes: hDHFR G21T, Y122I-GFP
Q: With B3 as the molecule, how does the “% GFP positive cells” value (NIH 3T3 cells; 1 μM MTX) read?
A: 86.6%

Q: What about the “GFP intensity Fold Change vs DMSO” value (NIH 3T3 cells; 1 μM MTX) of the same molecule?
A: 14.53

Q: What about the “% GFP positive cells” value (NIH 3T3 cells; 10 μM TMP) of the same molecule?
A: 2.92%

Q: And the “GFP intensity Fold Change vs DMSO” value (NIH 3T3 cells; 10 μM TMP)?
A: 1.30

Q: And the “% GFP positive cells” value (NIH 3T3 cells; DMSO)?
A: 0.61%

Q: And the Destabilizing mutation co-efficient (NIH 3T3 cells)?
A: 0.18

Q: What about the “Median Fluorescence signal with DMSO” value (NIH 3T3 cells) of the same molecule?
A: 3.27

Q: What about the “Protein level stabilization” value (hDHFR) of the same molecule?
A: stabilization exclusively with MTX

B4: OT-hDHFRC-015: GFP-hDHFR (A125F, Y122I) (protein, UniProt P00374 1-187, looked up, variant A125F Y122I)
Dihydrofolate reductase: MVGSLNCIVAVSQNMGIGKNGDLPWPPLRNEFRYFQRMTTTSSVEGKQNLVIMGKKTWFSIPEKNRPLKGRINLVLSRELKEPPQGAHFLSRSLDDALKLTEQPELANKVDMVWIVGGSSVIKEFMNHPGHLKLFVTRIMQDFESDTFFPEIDLEKYKLLPEYPGVLSDVQEEKGIKYKFEVYEKND
modifications: N-terminal GFP fusion
Q: B4 was tested. Which “MFI change over DMSO, GFP-hDHFR C terminus fusion (FIG. 20)” value (HEK 293T cells) did it give?
A: several fold increase in MFI over DMSO with both MTX and TMP
